Assay results from IntAct's records for PubMed 18923430.

Target: dnjc3_mouse Dnajc3 (UniProt Q91YW3)
Sequence (Q91YW3 whole entry): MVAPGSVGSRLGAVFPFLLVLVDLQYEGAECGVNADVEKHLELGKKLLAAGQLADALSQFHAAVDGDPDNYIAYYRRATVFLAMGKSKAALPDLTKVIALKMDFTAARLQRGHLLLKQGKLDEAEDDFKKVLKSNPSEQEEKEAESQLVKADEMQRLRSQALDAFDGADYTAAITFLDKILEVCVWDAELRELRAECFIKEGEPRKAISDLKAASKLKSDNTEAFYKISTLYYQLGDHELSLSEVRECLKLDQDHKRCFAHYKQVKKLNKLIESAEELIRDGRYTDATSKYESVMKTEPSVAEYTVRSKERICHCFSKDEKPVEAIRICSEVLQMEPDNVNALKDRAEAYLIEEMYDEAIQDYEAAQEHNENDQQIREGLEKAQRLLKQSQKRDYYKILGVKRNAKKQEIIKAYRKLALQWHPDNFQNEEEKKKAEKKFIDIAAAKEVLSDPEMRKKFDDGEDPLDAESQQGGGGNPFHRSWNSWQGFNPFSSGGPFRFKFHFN

Endoplasmic reticulum chaperone BiP (Homo sapiens), P11021 E201G
effect of a mutation on the interaction: disrupting interaction
